Experimental data published in patent US20200317768A1 (published 2020).

T1: cynomolgus monkey FcγRIIa1 extracellular domain, His-tagged (cynomolgus monkey)
T1 construct: also called cyno FcγRIIa1; cynoFcgRIIa1
T1 chain: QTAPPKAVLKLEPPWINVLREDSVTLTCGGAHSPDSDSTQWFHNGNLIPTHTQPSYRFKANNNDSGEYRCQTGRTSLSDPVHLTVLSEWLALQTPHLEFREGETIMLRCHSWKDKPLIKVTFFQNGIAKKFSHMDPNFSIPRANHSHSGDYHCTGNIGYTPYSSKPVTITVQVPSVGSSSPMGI

T2: cynomolgus monkey FcγRIIa1 extracellular domain, C-terminal His-tag (cynomolgus monkey)
T2 construct: also called cyno FcγRIIa1; cynoFcgRIIa1
T2 chain: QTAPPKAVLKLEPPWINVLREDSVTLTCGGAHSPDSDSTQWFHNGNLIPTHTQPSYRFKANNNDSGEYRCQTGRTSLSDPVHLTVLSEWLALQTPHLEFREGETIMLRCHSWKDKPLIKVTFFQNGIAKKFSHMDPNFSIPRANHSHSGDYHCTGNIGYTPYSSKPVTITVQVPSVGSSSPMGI

T3: cynomolgus monkey FcγRIIa2 extracellular domain, C-terminal His-tag (cynomolgus monkey)
T3 construct: also called cyno FcγRIIa2; cynoFcgRIIa2
T3 chain: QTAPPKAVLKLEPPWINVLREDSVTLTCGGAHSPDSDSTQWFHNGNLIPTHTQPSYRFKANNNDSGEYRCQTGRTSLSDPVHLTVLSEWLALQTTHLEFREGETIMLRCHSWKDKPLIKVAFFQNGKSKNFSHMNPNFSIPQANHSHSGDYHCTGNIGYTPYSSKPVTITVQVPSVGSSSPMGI

T4: human FcγRIIaH extracellular domain, C-terminal His-tag (human, UniProt P12318 34-217)
T4 construct: also called human FcγRIIa (type H); FcgRIIaH
T4 sequence: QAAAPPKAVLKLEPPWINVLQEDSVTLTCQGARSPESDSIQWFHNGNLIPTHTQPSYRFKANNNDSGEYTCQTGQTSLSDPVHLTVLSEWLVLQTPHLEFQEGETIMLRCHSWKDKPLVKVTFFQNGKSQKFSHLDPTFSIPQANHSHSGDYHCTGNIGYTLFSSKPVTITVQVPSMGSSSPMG

T5: cynomolgus monkey FcγRIIb extracellular domain, C-terminal His-tag (cynomolgus monkey)
T5 construct: also called cyno FcγRIIb; cynoFcγRIIb
T5 chain: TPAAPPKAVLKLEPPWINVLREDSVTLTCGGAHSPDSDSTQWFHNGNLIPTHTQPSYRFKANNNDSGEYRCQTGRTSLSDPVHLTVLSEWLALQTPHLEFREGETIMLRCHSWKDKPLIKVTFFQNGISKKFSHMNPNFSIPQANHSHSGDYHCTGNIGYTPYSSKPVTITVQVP

T6: cynomolgus monkey FcγRIIa3 extracellular domain, C-terminal His-tag (cynomolgus monkey)
T6 construct: also called cyno FcγRIIa3; cynoFcgRIIa3
T6 chain: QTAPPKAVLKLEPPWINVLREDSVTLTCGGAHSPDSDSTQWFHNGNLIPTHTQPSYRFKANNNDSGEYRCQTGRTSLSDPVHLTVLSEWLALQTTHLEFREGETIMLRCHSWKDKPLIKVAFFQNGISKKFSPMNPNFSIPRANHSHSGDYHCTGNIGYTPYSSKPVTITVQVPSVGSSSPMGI

T7: human FcγRIIb extracellular domain, C-terminal His-tag (human, UniProt P31994 43-217)
T7 construct: also called human FcgRIIb; FcgRIIb
T7 sequence: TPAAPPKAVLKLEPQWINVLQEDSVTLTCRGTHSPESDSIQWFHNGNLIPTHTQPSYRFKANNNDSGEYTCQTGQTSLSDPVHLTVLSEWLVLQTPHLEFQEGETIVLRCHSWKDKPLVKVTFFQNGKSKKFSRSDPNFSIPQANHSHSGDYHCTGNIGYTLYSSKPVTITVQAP

T8: human FcγRIIaR extracellular domain, C-terminal His-tag (human, UniProt P12318 34-217)
T8 construct: also called human FcγRIIa (type R); FcgRIIaR
T8 chain: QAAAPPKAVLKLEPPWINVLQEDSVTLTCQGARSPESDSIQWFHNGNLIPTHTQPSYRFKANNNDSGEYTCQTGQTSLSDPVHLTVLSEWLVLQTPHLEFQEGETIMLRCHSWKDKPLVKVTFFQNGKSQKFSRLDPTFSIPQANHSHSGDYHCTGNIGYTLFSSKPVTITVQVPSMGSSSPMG


Tests used:
[1] = target: T1, cynomolgus monkey FcγRIIa1 …; experiment: SPR; KD of SG1 / KD of variant
[2] = target: T2, cynomolgus monkey FcγRIIa1 …; experiment: SPR (Biacore), antibody captured, FcgR analyte
[3] = target: T3, cynomolgus monkey FcγRIIa2 …; experiment: SPR (Biacore), antibody captured, FcgR analyte
[4] = target: T4, human FcγRIIaH extracellular domain, …; experiment: SPR (Biacore), antibody captured, FcgR analyte
[5] = target: T5, cynomolgus monkey FcγRIIb extracellular …; experiment: SPR (Biacore), antibody captured, FcgR analyte
[6] = target: T6, cynomolgus monkey FcγRIIa3 …; experiment: SPR (Biacore), antibody captured, FcgR analyte
[7] = target: T9, human FcγRIIIaV extracellular domain, C-terminal His-tag (human, UniProt P08637 17-208); experiment: SPR (Biacore), antibody captured, FcgR analyte
T9 construct: also called human FcgRIIIaV; FcgRIIIaV
T9 sequence (P08637 17-208 F176V): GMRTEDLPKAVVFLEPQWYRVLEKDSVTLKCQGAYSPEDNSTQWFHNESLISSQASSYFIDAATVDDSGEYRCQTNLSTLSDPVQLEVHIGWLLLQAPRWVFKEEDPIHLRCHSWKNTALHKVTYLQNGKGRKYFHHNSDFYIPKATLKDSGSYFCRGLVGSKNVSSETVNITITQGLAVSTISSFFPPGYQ

[8] = target: T7, human FcγRIIb extracellular domain, …; experiment: SPR (Biacore), antibody captured, FcgR analyte
[9] = target: T8, human FcγRIIaR extracellular domain, …; experiment: SPR (Biacore), antibody captured, FcgR analyte

| Binder | KD fold (SG1 = 1) [1] [fold] | Kd [2] [nM] | Kd [3] [nM] | Kd [4] [nM] | Kd [5] [nM] | Kd [6] [nM] | Kd [7] [nM] | Kd [8] [nM] | Kd [9] [nM] |
| --- | --- | --- | --- | --- | --- | --- | --- | --- | --- |
| MS_M103205H795-SG1/M103202L889-SK1 (antibody, human IgG1, kappa, Parent antibody of the Fc variants; heavy chain constant region SG1, light chain M103202L889-SK1; also called MS1032LO06-SG1) heavy: not shown light: DIVMTQSPATLSLSPGERATLSCTSSQSVYHANWLSWFQQKPGQPPKLLIYWASTLAYGVPSRFSGSGSGTDFTLTISSLQPEDAATYYCAGGYGGGRYAFGQGTKVEIKRTVAAPSVFIFPPSDEQLKSGTASVVCLLNNFYPREAKVQWKVDNALQSGNSQESVTEQDSKDSTYSLSSTLTLSKADYEKHKVYACEVTHQGLSSPVTKSFNRGEC | 1 |  |  |  |  |  |  |  |  |
| M103205H795-MY013/M103202L889-SK1 (antibody, human IgG1, kappa, Substitution put into M103205H795-SG1) heavy: not shown light: DIVMTQSPATLSLSPGERATLSCTSSQSVYHANWLSWFQQKPGQPPKLLIYWASTLAYGVPSRFSGSGSGTDFTLTISSLQPEDAATYYCAGGYGGGRYAFGQGTKVEIKRTVAAPSVFIFPPSDEQLKSGTASVVCLLNNFYPREAKVQWKVDNALQSGNSQESVTEQDSKDSTYSLSSTLTLSKADYEKHKVYACEVTHQGLSSPVTKSFNRGEC | 0.7 |  |  |  |  |  |  |  |  |
| M103205H795-MY006/M103202L889-SK1 (antibody, human IgG1, kappa, Substitution put into M103205H795-SG1) heavy: not shown light: DIVMTQSPATLSLSPGERATLSCTSSQSVYHANWLSWFQQKPGQPPKLLIYWASTLAYGVPSRFSGSGSGTDFTLTISSLQPEDAATYYCAGGYGGGRYAFGQGTKVEIKRTVAAPSVFIFPPSDEQLKSGTASVVCLLNNFYPREAKVQWKVDNALQSGNSQESVTEQDSKDSTYSLSSTLTLSKADYEKHKVYACEVTHQGLSSPVTKSFNRGEC | 1.6 |  |  |  |  |  |  |  |  |
| M103205H795-MY037/M103202L889-SK1 (antibody, human IgG1, kappa, Substitution put into M103205H795-SG1) heavy: not shown light: DIVMTQSPATLSLSPGERATLSCTSSQSVYHANWLSWFQQKPGQPPKLLIYWASTLAYGVPSRFSGSGSGTDFTLTISSLQPEDAATYYCAGGYGGGRYAFGQGTKVEIKRTVAAPSVFIFPPSDEQLKSGTASVVCLLNNFYPREAKVQWKVDNALQSGNSQESVTEQDSKDSTYSLSSTLTLSKADYEKHKVYACEVTHQGLSSPVTKSFNRGEC | 0.8 |  |  |  |  |  |  |  |  |

Other lines, results leading:

| KD fold (SG1 = 1) [1] [fold] | Kd [2] [nM] | Kd [3] [nM] | Kd [4] [nM] | Kd [5] [nM] | Kd [6] [nM] | Kd [7] [nM] | Kd [8] [nM] | Kd [9] [nM] | Binder |
| --- | --- | --- | --- | --- | --- | --- | --- | --- | --- |
|  | 580 | 560 | 360 | 170 | 14000 | 10000 | 890 | 710 | M103205H795-MY197/M103202L889-SK1 (antibody, human IgG1, kappa, Substitutions introduced into M103205H795-SG1; expressed with M103202L889-SK1 as light chain) heavy: QVTLKESGPVLVKPTETLTLTCTVSGIDLSHDDISWVRQAPGKGLEWVGIISYAGSTYYASWAKGRLTISKDTSKNQVVLTMTNMDPVDTATYYCARGVPAYSHGGDLWGQGTLVTVSSASTKGPSVFPLAPSSKSTSGGTAALGCLVKDYFPEPVTVSWNSGALTSGVHTFPAVLQSSGLYSLSSVVTVPSSSLGTQTYICNVNHKPSNTKVDKKVEPKSCDKTHTCPPCPAPELLNGPSVFLFPPKPKDTLMISRTPEVTCVVVDVSDEDPEVKFNWYVDGVEVHNAKTKPREEQYNSTYRVVSVLTVLHQDWLNGKEYKCKVSNKALPKPIEKTISKAKGQPREPQVYTLPPSREEMTKNQVSLTCLVKGFYPSDIAVEWESNGQPENNYKTTPMVLDSDGSFFLYSKLTVDKSRWQQGNVFSCSVMHEALHNHYTQKSLSLSP light: DIVMTQSPATLSLSPGERATLSCTSSQSVYHANWLSWFQQKPGQPPKLLIYWASTLAYGVPSRFSGSGSGTDFTLTISSLQPEDAATYYCAGGYGGGRYAFGQGTKVEIKRTVAAPSVFIFPPSDEQLKSGTASVVCLLNNFYPREAKVQWKVDNALQSGNSQESVTEQDSKDSTYSLSSTLTLSKADYEKHKVYACEVTHQGLSSPVTKSFNRGEC |
|  | 2200 | 2200 | 1200 | 960 | 6600 | 11000 | 850 | 1100 | M103205H795-MY147/M103202L889-SK1 (antibody, human IgG1, kappa, Substitutions introduced into M103205H795-SG1; expressed with M103202L889-SK1 as light chain) heavy: QVTLKESGPVLVKPTETLTLTCTVSGIDLSHDDISWVRQAPGKGLEWVGIISYAGSTYYASWAKGRLTISKDTSKNQVVLTMTNMDPVDTATYYCARGVPAYSHGGDLWGQGTLVTVSSASTKGPSVFPLAPSSKSTSGGTAALGCLVKDYFPEPVTVSWNSGALTSGVHTFPAVLQSSGLYSLSSVVTVPSSSLGTQTYICNVNHKPSNTKVDKKVEPKSCDKTHTCPPCPAPELWNGPSVFLFPPKPKDTLMISRTPEVTCVVVDVSEEDPEVKFNWYVDGVEVHNAKTKPREEQYNSTYRVVSVLTVLHQDWLNGKEYKCKVSNKALPAPIEKTISKAKGQPREPQVYTLPPSREEMTKNQVSLTCLVKGFYPSDIAVEWESNGQPENNYKTTPMVLDSDGSFFLYSKLTVDKSRWQQGNVFSCSVMHEALHNHYTQKSLSLSP light: DIVMTQSPATLSLSPGERATLSCTSSQSVYHANWLSWFQQKPGQPPKLLIYWASTLAYGVPSRFSGSGSGTDFTLTISSLQPEDAATYYCAGGYGGGRYAFGQGTKVEIKRTVAAPSVFIFPPSDEQLKSGTASVVCLLNNFYPREAKVQWKVDNALQSGNSQESVTEQDSKDSTYSLSSTLTLSKADYEKHKVYACEVTHQGLSSPVTKSFNRGEC |
